Assay results from the DeepSol protein solubility set.

Experiment: soluble on expression in E. coli; label from the status in PepcDB or PDB records

Sequence | soluble on expression in E. coli
MAHHHHHHMNLIHICLFIIVIKCYVNCIKKNNKHIAYDKFYKQGSNTIVGSGNGSGDLLFLNNININKNVERKKNILAHSEIGTVRNIDDINLLNHNKKNEISFTKCKQIATIGPASENFEQLEKLYLNGIDVFRLNFSHGLKSIKKYIINSIRILEKKYDTTIGILGDIQGPKIRIGEFEKNQINENDNNTFVELKEGDLFSFDLMNSLGNQNRVQLNYPELIKNAKAGQIILLDDGNLKMKILENNYDTSNIQNSYIKVQVLTGGKLYSKKGFCIPNMIMPIDVLSEKDIKDILFCINEEVDFLGYSFVQTEYDLIFLRNIINDYYESDFYNNIKRKDRINFDQNNLQMKTFDDENDFYIKEVNDYYNNYYLKNVQKYKQIYDVYKNQDLYINDNIQNHYNKNIVTNIGDDKNIIDEQHIHNNNNNNIDNIMKNYSNLYNINKDHNKIAIISKIEKPSAIKNIENIIKLSDGIMIARGDLGIETNLSNLPILQKKLINLCRIKYNKPVIVATQMMESMRFLPSPTRAEVTDVATALYDGSDCVMLSAETATGQYPILTVSTQNKIIKDVENDYYYYEYTQRKNDKLKMLDHKNNCCHENKDIQQINKYNHEYIQNNKYEQDIQNNISYFDKLIFSIRDISNNINLKSIILFSNEFNKIQKLSNLRTKAPIIVITENKYLARKLQLTWGIYPHLSKKQNLFNHDLFSLINYGCDVSKKEGFVNSPDEYSLVTFSKNINSANLLYLCQPCLTN | not soluble
MQAIAIDQFSEPEETQVEQVENPDRNEAGYEVCNQSGENLSVAIAYFDTSIDSYRSEGWWNLDQSKCQFFPNLLDSVDEVYVFAESDQTLWSGDFPFCMQEDAFEYPDANRDRCPSPAYSKGFLKVEVGDAKTWTTNLTPSQLEHHHHHH | not soluble
MSTLPPCPQCNSEYTYEDGALLVCPECAHEWSPNEAATASDDGKVIKDSVGNVLQDGDTITVIKDLKVKGSSLVVKVGTKVKNIRLVDGDHDIDCKIDGIGAMKLKSEFVRKV | not soluble
GEEKKDSKAFIDVSAATLWTAPDSLRPIDVPSATNPVDLWKWTKSMTLDEKLWLTNANKLETQALLGQEVTVVDKKGDWVKVLVHGQPTPRNEEGYPGWMPEKQLTYNQEFADKTNEPFVLVTKPTAILYINPSEKHKSLEVSYNTRLPLLSEDTISYRVLLPNGQKAWLRKNDGTFYRSQNDIPTPAADDLINTGKMFLGLPYIWAGTSGFGFDCSGFTHTIYKSHGITIPRDSGPQSRNGVAVDKEHLQKGDLIFFAHDQGKGSVHHVAMYIGDGNMIHSPRAERSVEIIPLNTPGYIEEYAGARRYLP | soluble
MKSIVEKLNLTKYQQLVILNRPQGEYLSEFASAAQQLPSEPVELIFAFVKTMAEFQEIVSMVIEGQHLVENGLLYVAYPKKGNKMYPTFVHRDEIFPTLQVNEADGYIKGSTLKFNRMVSLDETFTVVGMKNVLKKLAKNQTSSAVGDYVQYLPEIEALVQTEPAAAATFAALTPGYQKEWARYVFSAKRAETRKKRQTEMLVILKEGYKTKALYQQRKK | not soluble
MGSDKIHHHHHHMGQRIPVTLGNIAPLAVKPFRPGKLALVCEGGGQRGIFTAGVLDEFMRAGFNPFDLMLGTSAGAQNLSAYMCNQQGYARKVITRYTTSRQFFDPMRFVRGGNLIDLDWLVEATSQQMPLAMNYAEAQFALGKELWLCACRGDDYSASYFSPTPQTWLDLIRASSAIPGFYRSGVLLDGVSYLDGGVSDAIPVQEAARRGAQTIVVIRTVPSQMFYTPQWFKRMERWLGESSLQPLVNLVHHHETTYRAIQQFIEKPPGKLRIFEIYPQRPLRSMALGSRLPALLEDYKTGRQCGRYFLATVGKLLADQPPLLRHAPRIARPAPVVVPPVPVANEAPQATIIPAPQANDPSFDHEDLA | not soluble
MSLAKPTDIRIRDVRISAEHINYRTPIKFGGRVVNDVTLLNVALDVETADGRRGSGFGSMPMGNVWAWPTSTTSGDATLQAMVDIGTAIAEAAPQLDLSGHPLELTAAAHSQYGSIASTIAHKANITEAVPKLATLVAASPVEAAIHDAYGKALGLNSYNVLGADFANTDLASYLSPEFAGEYLDRYTLRTPQPQMPLYHLIGALDPLDQDELQNPVGDGLPETLGDWITADGLTHLKIKLNGDNLDWDVARVAKIDAVAIDAQAKRGCKAWQYSLDFNERCPNVQYILDFLAKLSESSPEALDRVQYIEQPTSRDLRANPENRMHAAAKIKPVVIDESLIDYESLLLAREQGYSGVALKACKGQSEALLMGAAAQKFGMFLCVQDLTCPGASFLHSASLAARMPTIAAIEGNGRQYCPAGNAEWAKRYPSMFDITQGYVGTAVLTEPGLGYEGHHHHHH | not soluble
MVENLKQLQERVAVSDGRAKADLVIKNGRIINVFSGEIMDGDIAIKNGYIAGIGSFPDAEKIIDAAGAFIAPGFIDAHVHVESAMVTPAEFARVLLPNGVTTIVTDPHEIANVAGEKGIEFMLEDAKGAPLDMFVMLPSSVPATEGEHNGETLHAEKLHPLYRHEKVIGLAEVMDFPSVAKGSDDILRKIIDAKKEGGRIDGHGAGLTSADLNNYLAVGIRTDHESTTAKEATDRLRAGMFVMLREGTVGRDLLQTIPAVSEKNSHRFCFCTDDKLINDLITEGSINYNIKLAIKNGIDPITAIQMATINAANCHNLPYLGAVAAGYQADIVFLTDIETVEISKVLKNGEVVVDNGVRNEAAFKQQAAVPFVSPPINHHVHLQDLALPLTKETCYVIGMQPNSLFTEKRIEQVTIQGGKFVPTVENDLLKMAVVERHHDTGCVGVGIVKGFGLTEGAIATTVAHDSHNIVAVGVSDEAMKAAIDHITQTGGGIAVVNGAGQVLHDLALPIAGLLSDKSYEEVENDLAGLLNAFKQISTANGFDPFLTLSFLTLPVIPELKLTDQGLFDFATFQIISNEVN | not soluble
MACPEATFFHRAGWKQVIEQAFGHKTWFLYIEEGGCIQGVLPLAEIDSLLFGHSLSALPFCVYGGIAAISDDARIRLDQAAQMLATYLKVDYLEYRHLHPFHHDWPTKDLYVTFRKTMDSDVEQNMLAIPRKQRAMVRKGMKYELQSYLDQDTDHFFRAYSASVHRLGTPVFSRKYFRLLKSVFAEDCELLIITKDENVVSAVMSFYFRDEVLPYYGGGTDAARDLAGNDFMYWELMRRACERGYRVFDFGRSKRGTGSYSFKKNWGFEPQPLFYEYQLHQAKTIPEHNPLNPKYQLFIKAWQKMPLALANMLGPHIVKNLG | not soluble
DAAPAAGSTLDKIAKNGVIVVGHRESSVPFSYYDNQQKVVGYSQDYSNAIVEAVKKKLNKPDLQVKLIPITSQNRIPLLQNGTFDFECGSTTNNVERQKQAAFSDTIFVVGTRLLTKKGGDIKDFADLKGKAVVVTSGTTSEVLLNKLNEEQKMNMRIISAKDHGDSFRTLESGRAVAFMMDDALLAGERAKAKKPDNWDIVGKPQSQEAYGCMLRKDDPQFKKLMDDTIAQVQTSGEAEKWFDKWFKNPIPPKNLNMNFELSDEMKALFKEPNDKALNLEHHHHHH | soluble
NIKNILSERVSAAMVAAGLPEGTNPAISLSNRPQFGDYQANGVMGAAKKLKTNPRELATKVVAELDLDGIASKIELAGPGFINIHLDESWLAAQLNEVAQDDFIGVAQRGTT | not soluble
QPSLLDRLVDDEPWRRSEAPEAALLTHAGLRAAVLRDLRWLLNTVNLASSQDLAPYRHVPASSVNFGVRAMAGRRMSEIDWVDVETSIRDAIAAFEPRILESSVEVRCVSDTRTLEHHNVLSLEIRGMLWCVPHPREFLFRTDIDLE | not soluble
MKKRFIYHDEKSNKFWWIDYEGDSLAVNYGKVGSIGKFQTKEFDNEEQCLKEASKLIAAKMKKGYQEDPKFNFMDRYYFDDEEIGLHVKTSHPNFQCHFTDPLYMCCWDEESPFGSDEGADALNVLENSLRKEPDLDCADFPQMLIETMWGMKYIAMDSILEEDVRAQLLVDEMSTIQSNMITYATAFGQIKVMGKISHKLKKMGLNALARHQLTAKILQWGDGQDSPILQKMIDDLTAFPHENLEHHHHHH | soluble
MANCQIAILYQRFQRVVFGISQLLCFSALISELTNQKEVAAWTYHYSTKAYSWNISRKYCQNRYTDLVAIQNKNEIDYLNKVLPYYSSYYWIGIRKNNKTWTWVGTKKALTNEAENWADNEPNNKRNNEDCVEIYIKSPSAPGKWNDEHCLKKKHALCYTASCQDMSCSKQGECLETIGNYTCSCYPGFYGPECEYVRECGELELPQHVLMNCSHPLGNFSFNSQCSFHCTDGYQVNGPSKLECLASGIWTNKPPQCLAAQCPPLKIPERGNMTCLHSAKAFQHQSSCSFSCEEGFALVGPEVVQCTASGVWTAPAPVCKAVQCQHLEAPNEGTMDCVHPLTAFAYGSSCKFECQPGYRVRGLDMLRCIDSGHWSAPLPTCEAISCEPLESPVHGSMDCSPSLRAFQYDTNCSFRCAEGFMLRGADIVRCDNLGQWTAPAPVCQALQCQDLPVPNEARVNCSHPFGAFRYQSVCSFTCNEGLLLVGASVLQCLATGNWNSVPPECQAIPCTPLLSPQNGTMTCVQPLGSSSYKSTCQFICDEGYSLSGPERLDCTRSGRWTDSPPMCEAIKCPELFAPEQGSLDCSDTRGEFNVGSTCHFSCNNGFKLEGPNNVECTTSGRWSATPPTCKGIASLPTPGVQCPALTTPGQGTMYCRHHPGTFGFNTTCYFGCNAGFTLIGDSTLSCRPSGQWTAVTPACRAVKCSELHVNKPIAMNCSNLWGNFSYGSICSFHCLEGQLLNGSAQTACQENGHWSTTVPTCQDDGKCPLNPHSHLGTYGVFTNAAFDPSP | soluble
MQIKLANPRGFCAGVDRAIEIVNRALEVFGPPIYVRHEVVHNKFVVEDLRSRGAIFVEELEQVPDDVIVIFSAHGVSQAVRTEAAGRGLKVFDATCPLVTKVHIEVARYSRDGRECILIGHAGHPEVEGTMGQYDAVNGGAIYLVEDEADVASLEVRNPESLAFVTQTTLSMDDTSRVIDALRKRFPAIGGPRKDDICYATQNRQDAVKQLADECDVVLVVGSPNSSNSNRLRELAERMATPAYLIDGAEDMQKGWFDGVERIGITAGASAPEVLVRGVIQQLQAWGATGADELAGREENITFSMPKELRVKSLLLEHHHHHH | not soluble
VVELDETPVRTLLARQGIYDKNSAIVAYELLYRNSDAENSHVDNLNQSSGEAATSSVLVQLFANLDVNTIIGNKQAFINFTHSHLVQKIPMLLPKNRIVIEVLETVAIDQPLLLNLMELKKQGYQIALDDFVFRNELAPLVDMADIIKIDVLHLDQQQIAEQLLPLKSFRGKLLAEKIEDKQQFNHCVNLGFDFFQGFFLNKP | not soluble
MGSDKIHHHHHHMYTREELMEIVSERVKKCTACPLHLNRTNVVVGEGNLDTRIVFVGEGPGEEEDKTGRPFVGRAGMLLTELLRESGIRREDVYICNVVKCRPPNNRTPTPEEQAACGHFLLAQIEIINPDVIVALGATALSFFVDGKKVSITKVRGNPIDWLGGKKVIPTFHPSYLLRNRSNELRRIVLEDIEKAKSFIKKEG | soluble
MIESERKQIIDLIKKEVIPAIGCTEPIAVALCVAKAAETLGMKPEKIEVLLSANILKNAMGVGIPGTDMVGLPIAVALGALIGRSEYQLEVLRDCTPEAVEQGKLFIAEKRICISLKEDITEKLYIEVICTAGSQKATAVIAGGHTTFVYIATDEKVLLDKQQTANEEEEDASLELNLRKVYDFALTSPLDEIRFILDTARLNKAAAEQAFKGNYGHSLGKMLRGTYEHKVMGDSVFSHILSYTSAACDARMAGAMIPVMSNSGSGNQGISATLPVVVFAEENGKTEEELIRALMLSHLTVIYIKQSLGRLSALCGCVVAATGSSCGITWLMGGNYNQVAFAVQNMIANLTGMICDGAKPSCALKVTTGVSTAVLSAMMAMEDRCVTSVEGIIDEDVDQSIRNLTRIGSQAMNETDKMVLDIMTHKGGC | not soluble
MDAEQLLKAITPEVYDRLVYAVETGRWPEGTTLSREQRDSCMQAVMLYQSKHNTEAQHMTVAAGGEISFKSKQELKKQFNTDESDIVRVNPNLD | not soluble
